Target: the molecule itself
Experiment: SEC

B1: LexAPaS125A, full-length P. aeruginosa LexA carrying the S125A mutation in the catalytic dyad (natural protein)
chain: MQKLTPRQAEILSFIKRCLEDHGFPPTRAEIAQELGFKSPNAAEEHLKALARKGAIEMTPGASRGIRIPGFEPHAANDDEGLPVIGRVAAGAPILAEQNIEESCRINPAFFNPRADYLLRVRGMAMKDIGILDGDLLAVHVTREARNGQVVVARIGEEVTVKRFKREGSKVWLLAENPEFAPIEVDLKEQELIIEGLSVGVIRR
  stoichiometry N: 2
